From the supplement of paper PMC12764529
± gives the half width of the 95% confidence interval.

How the values were obtained:
[1] = folding stability dG unfold from trypsin proteolysis; higher = more stable
Summary of the method: (§1)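 Mini-proteins designed to be under 80 residues and free of cysteine were carried in a PA-tagged cDNA display construct and digested with trypsin and with chymotrypsin. Each protease was applied at 11 threefold-diluted concentrations, alongside a no-protease condition, before sequencing. K50 came from Bayesian fitting of the sequencing counts, and unfolding free energy was obtained by comparing it with a sequence-predicted unfolded-state K50 and a shared folded-state K50, for each protease separately or for both together. Designs were retained only if their AlphaFold2 dimer inter-PAE exceeded 15.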

[2] = folding stability dG unfold from chymotrypsin proteolysis; higher = more stable
Summary of the method: as §1

[3] = folding stability dG unfold (combined trypsin and chymotrypsin); higher = more stable
Summary of the method: as §1

Row | Sequence | folding stability dG unfold [1] [kcal/mol] | folding stability dG unfold [2] [kcal/mol] | folding stability dG unfold [3] [kcal/mol]
1 | SAGGLSYIELEVEFPGGGSFEEAKARAEKLAEEVRKKLGLKEVKIEIKKNPDGSYRVKITIKVPSKLSAGGS [r8_3_JUSTAS] | 2.76 ± 0.063 | 3.04 ± 0.077 | 3.02 ± 0.14
2 | SAGGMADEELANMSLEEVIAAVKEAGAKTVTVTFPDGSTLTIDLGDDGVVTVTLTTPPGEKETFEIPSAGGS [r8_51_TrMRF] | 2.34 ± 0.17 | 2.73 ± 0.088 | 2.59 ± 0.11
3 | SAGGMAVPVKVRDPVNGNWKTLDNIESIDEVVEVDPTDGSRSYFVKLKGSGKWYVVDDPEAVEAAKGSAGGS [r8_206_TrMRF] | 1.17 ± 0.064 | 1.08 ± 0.14 | 1.12 ± 0.13
4 | SAGGMEEIEVEFEFTLPDGRTLRLTVRVRRFDGGIVVEVDVGGEEEEEREFMEEVAREIAERIAEEESAGGS [r8_416_TrMRF] | 2.92 ± 0.07 | 4.51 ± 0.11 | 4.12 ± 0.093
5 | SAGGMEEILKKLGVKKGDKVKIKIKVEKDGKTETVEIEVPVENLEDILKKLGLSKDQVKITEIKVEKESAGG [r13_681_TrROS_Hall] | 2.17 ± 0.14 | 3.84 ± 0.1 | 3.4 ± 0.073
6 | SAGGMEEIVKALPPEAGVVEIESEPLPLEDSILRRYRLRVYNPATGKWEELEVLIEYDKDGNIRRIVASAGG [r13_358_TrMRF] | 2.5 ± 0.043 | 3.94 ± 0.051 | 3.6 ± 0.2
7 | SAGGMEEVIKELAKSLGVTKILPESEAKKLSSSVPNALAAVKLPDGSYVLIKRNSDGSVSSIKYKLESAGGS [r16_686_JUSTAS] | 1.14 ± 0.018 | 1.83 ± 0.087 | 1.54 ± 0.1
8 | SAGGMEIKVTVEKREDGYLVVTVEKAESKEEAIEAIKKELREKYPDAEITITDKDGNTIVIKLKDLKSAGGS [r8_236_TrROS_Hall] | 1.16 ± 0.071 | 2.52 ± 0.1 | 2.06 ± 0.067
9 | SAGGMEKIEIEVENEDGEKVKIEIYFDEETGFIVVKIEGENPELIDALKKKLGLEIVEKREDGYLVFKSAGG [r13_937_TrROS_Hall] | 3.01 ± 0.24 | 3.72 ± 0.13 | 3.48 ± 0.23
10 | SAGGMEKVKVRVFFIDEETGEPREVEVEATLEELRELIEKIPDKGRVLVKLELPDEERIVTLEELKERSAGG [r13_254_TrMRF] | 1.79 ± 0.065 | 3.23 ± 0.1 | 2.76 ± 0.15
11 | SAGGMELEKAIEFAKETGKEVEIEIEVEDENGKPFVIRVRVKVKPDPEDPNKYKIEVEVEVFPKEELSAGGS [r16_323_TrMRF] | 3.61 ± 0.19 | 4.38 ± 0.13 | 4.08 ± 0.12
12 | SAGGMELLGEVTVEKPGKPITFPIYRVPDEPREVVEVRELDPSTGKWTPIGTRELPPGEAERAIEELSAGGS [r8_423_JUSTAS] | 0.36 ± 0.08 | 0.573 ± 0.17 | 0.544 ± 0.16
13 | SAGGMELPPEVKTIAEKLEAEGYDVLAVPVGDSYVIAVDGKVAATPEEFEKLKKIPGVKKLITIDLPSAGGS [r16_275_TrMRF] | 0.432 ± 0.056 | 0.583 ± 0.049 | 0.541 ± 0.13
14 | SAGGMELTIPLPNGKLLKIKVEEVKAEPVLVEFELRDANGKLIDTIPAPSGFKISIRFSVEIYDPNEYSAGG [r13_848_TrMRF] | 2.92 ± 0.091 | 3.908 ± 0.032 | 3.61 ± 0.077
15 | SAGGMEPPPMLLLVIEIENEDGEKLRIVVPLEDLEEVLKALGLSKEEVRIKKIEVVPLTDEQLKELLESAGG [r13_850_TrROS_Hall] | 3.43 ± 0.35 | 3.57 ± 0.25 | 3.32 ± 0.28
16 | SAGGMETIELEIEITDEDGNTYRIRVTIERKDGKLVIKIEVEAETPEERERARELAEELARRLEEELSAGGS [r8_416_TrROS_Hall] | 4.1 ± 0.19 | 5.3 ± 0.35 | 4.94 ± 0.6
17 | SAGGMEVTFPVSPDLSPEEVRARIEAEIRPIAEARGAVDVEVPIVEYRRLPPDSVEFRFKVTVRFPRSAGGS [r8_184_JUSTAS] | 1.94 ± 0.089 | 2.4 ± 0.052 | 2.33 ± 0.11
18 | SAGGMEVVFVVGSPEVAEAFREKHPDLPFVPVSLEDYRNPAPFEAAVAAVEARGHAVRVITVPDDPESAGGS [r8_376_JUSTAS] | 0.0526 ± 0.14 | 1.12 ± 0.05 | 0.796 ± 0.064
19 | SAGGMFKGPDGNWKTYKTTKPGLTKSDIGPFVEELVEKFLKDHGLNPENVSAKAEYNPSTGTVNVYVGSAGG [r13_913_TrMRF] | 0.041 ± 0.039 | 0.783 ± 0.083 | 0.576 ± 0.08
20 | SAGGMFLRIEPEDGSRFEIPLNDPSLPLEVVVGLVSKYMDGPVKLKLTLVLPEEEVEYEYEIPLEKKSAGGS [r16_216_TrMRF] | 1.24 ± 0.028 | 2.37 ± 0.061 | 1.98 ± 0.098
21 | SAGGMGLEELAKLSPEEIARRLAAEAKAAAAAAGTPDAAVTLEVTLEDKPIVVEVGADGTIRRVELGSAGGS [r16_431_JUSTAS] | 0.442 ± 0.1 | 1.16 ± 0.024 | 0.922 ± 0.063

Row | Sequence | folding stability dG unfold [1] [kcal/mol] | folding stability dG unfold [2] [kcal/mol] | folding stability dG unfold [3] [kcal/mol]
22 | SAGGMGSEKLPLTLTLPGDRKLEVTVYRVGDKLYVEIKLTHGSKPLGTLTVEADSLDEVLDAAKEAASAGGS [r16_55_TrMRF] | 2.77 ± 0.15 | 3.58 ± 0.062 | 3.28 ± 0.15
23 | SAGGMIAEIKPIPPNVPDGATATITFPDGTPAEAELRTEPLEDGPRRVVLKLKGKEGEIELEFVLPLSAGGS [r8_360_TrMRF] | 0.16 ± 0.13 | -0.488 ± 0.31 | 0.0112 ± 0.099
24 | SAGGMIEIEYNPDQGYFRITVWPMNPKNGKPKSKEIPIPFEGDPEEALDKVKDLIDDHPGYHVDIEPYSAGG [r13_284_TrROS] | 0.657 ± 0.068 | 1.27 ± 0.13 | 1.05 ± 0.14
25 | SAGGMIELTIVVKTKEEAEKAAEELARKLAEELGVEVTVTSVEVEEVEDPETGETYLVVRVRIEVKPSAGGS [r8_171_TrROS_Hall] | 4.75 ± 0.27 | 4.12 ± 0.11 | 4.53 ± 0.23
26 | SAGGMIKITVTLPDPARVRALFAELGLDVEVTPLPDGSVEIYLPEEYKEKVVEALPEEEVEITPVPPLSAGG [r13_261_JUSTAS] | 2.5 ± 0.13 | 3.05 ± 0.17 | 2.91 ± 0.14
27 | SAGGMIKLEFENPDGMRIKIEIDRIHRFDPDNGYLIIPVKIEVEPPGKPREIDGTIILPPGMPPGQPLSAGG [r13_823_TrROS] | 2.04 ± 0.19 | 0.811 ± 0.082 | 1.43 ± 0.24
28 | SAGGMIRIERDGDRLTIEIHLPEGEELTPEQLEELARALLEELGPDARVVRVERLEDGTVRIEVELPSAGGS [r8_103_TrROS_Hall] | 3.32 ± 0.14 | 2.35 ± 0.07 | 2.88 ± 0.13
29 | SAGGMITATFTIDLGAGPVTFTFDITDIETALEKIKEYLKSQGIDAKLVSVSVDPANGTVPMKLSVPPSAGG [r13_567_JUSTAS] | 1.58 ± 0.043 | 1.46 ± 0.14 | 1.56 ± 0.12
30 | SAGGMIVIEKEEDGFYRITIRNKETGEEVEEIPISKEELEELLKEAEENMSLEEIAEKLGLEIEIEKVSAGG [r13_836_TrROS_Hall] | 1.68 ± 0.047 | 0.971 ± 0.023 | 1.27 ± 0.12
31 | SAGGMIVIEVETEEEALEAARELAKKLLEKLKEEGIEEVTLTVTVEVVDEKTKEVKTYTLTLTVKKPSAGGS [r8_163_TrROS_Hall] | 3.94 ± 0.23 | 4.19 ± 0.051 | 4.08 ± 0.21
32 | SAGGMKFELVARFDSKEAAEKAVEELVRELFPDFDVEVEVEVIEDPETGTFLAIATITLPLPGPEDLSAGGS [r8_17_TrMRF] | 4.31 ± 0.21 | 4.18 ± 0.19 | 4.19 ± 0.2
33 | SAGGMKIEFDEKTKRITITLPDGKKVEIELKDGRKVEITFERVDGKLKVVIKHKNEEEALELAKKLLSAGGS [r16_623_TrROS_Hall] | 1.15 ± 0.086 | 1.34 ± 0.082 | 1.55 ± 0.26
34 | SAGGMKIEITVSPVGDVVNVEVKIELPEGPVEVVDETPAEVAPDGSIHIKLKLKLPNGPWLEMEIEVSAGGS [r8_449_JUSTAS] | 2.91 ± 0.24 | 3.97 ± 0.15 | 3.87 ± 0.33
35 | SAGGMKIEIVEIEREGNTITIKAKITLPDGTVIEITAKAEFVDGELKLEIKVEVRKLPPPPPPPPEESAGGS [r8_458_TrROS_Hall] | 2.87 ± 0.27 | 2.73 ± 0.39 | 2.55 ± 0.53
36 | SAGGMKIEVRPLPGDGFVVRLPGDVVALIDPSTGEAVAFFPDGSVARLTITRDPDRPEFTITIEPVGSAGGS [r8_186_TrMRF] | 1.77 ± 0.059 | 1.89 ± 0.032 | 1.83 ± 0.069
37 | SAGGMKIGVLLPKSIPPEKAEEFLKKLNPDLEVEYRPVEPGSLKDIPPEIEVIVLPADDDFALALVKPSAGG [r13_649_TrMRF] | 0.323 ± 0.044 | -0.401 ± 0.12 | 0.00463 ± 0.11
38 | SAGGMKIKVTVEVTFPDGTVRTFPVPDATSEEEVRAILAERGFGDLADVPIRITEREPVPAVPPEELLSAGG [r13_493_JUSTAS] | 1.68 ± 0.033 | 1.76 ± 0.043 | 1.69 ± 0.071
39 | SAGGMKINPKVFGNYVLVEVENPETGSRILKLVEFNPGPKTATVKVFYIDPNGKPTLLEEKTFSLPDLSAGG [r13_768_TrMRF] | 1.36 ± 0.018 | 2.736 ± 0.025 | 2.32 ± 0.071
40 | SAGGMKIVSIEYDKENKKITIKVEAPPGVSAEELAKKIKELAKELFGKEIEIEVKVEKVEFFEPEEESAGGS [r8_314_TrROS_Hall] | 3.61 ± 0.16 | 3.12 ± 0.13 | 3.33 ± 0.12
41 | SAGGMKIVSVEFDEETGEVYVKIEVPTPEELEALKKLPGEVRIVDKETGEVKVIKVKSIEELLELLKKSAGG [r13_604_TrROS_Hall] | 1.86 ± 0.086 | 2.18 ± 0.071 | 2.05 ± 0.15
42 | SAGGMKIYYISKGKKYYVKVILPNNEIIEIETESLEEAIKKAKEELIKKYPNIPPENFKIDYIIPLPESAGG [r13_887_TrMRF] | 3.81 ± 0.2 | 4.34 ± 0.078 | 4.18 ± 0.2
